# Measured values from the supplement of paper PMC10567573.
# B1: HDAC6 (parent)
# chain: YVHHQALLDVKNIAHQNKFGEDMP
# Variants of: B1
# Assay: protein stability index of a GFP-peptide fusion (GPS, HEK-293T) (PSI 1-6); higher = more stable
# Settings: c terminus: a fixed tail appended
# 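Further: lentivirally expressed fusions sorted by FACS into six bins by GFP to DsRed ratio, PSI derived from sequencing read proportions per bin multiplied by bin number.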
row,Variant,protein stability index
1,YVHHQALLYVKNIAHQNKFGEDMP [D9Y],2.35
2,YVHHQALLKVKNIAHQNKFGEDMP [D9K],2.67
3,YVHHQALLHVKNIAHQNKFGEDMP [D9H],2.56
4,YVHHQALLIVKNIAHQNKFGEDMP [D9I],3.33
5,YVHHQALLWVKNIAHQNKFGEDMP [D9W],3.58
6,YVHHQALLCVKNIAHQNKFGEDMP [D9C],2.38
7,YVHHQALLTVKNIAHQNKFGEDMP [D9T],1.95
8,YVHHQALLRVKNIAHQNKFGEDMP [D9R],1.65
9,YVHHQALLGVKNIAHQNKFGEDMP [D9G],1.85
10,YVHHQALLLVKNIAHQNKFGEDMP [D9L],2.25
11,YVHHQALLVVKNIAHQNKFGEDMP [D9V],1.25
12,YVHHQALLQVKNIAHQNKFGEDMP [D9Q],1.68
13,YVHHQALLPVKNIAHQNKFGEDMP [D9P],4.3
14,YVHHQALLMVKNIAHQNKFGEDMP [D9M],1.76
15,YVHHQALLNVKNIAHQNKFGEDMP [D9N],2.66
16,YVHHQALLFVKNIAHQNKFGEDMP [D9F],2.23
17,YVHHQALLSVKNIAHQNKFGEDMP [D9S],2.25
18,YVHHQALLAVKNIAHQNKFGEDMP [D9A],3.21
19,YVHHQALLEVKNIAHQNKFGEDMP [D9E],2.4
20,YVHHQALVDVKNIAHQNKFGEDMP [L8V],1.75
21,YVHHQALWDVKNIAHQNKFGEDMP [L8W],1.81
22,YVHHQALNDVKNIAHQNKFGEDMP [L8N],2.71
23,YVHHQALDDVKNIAHQNKFGEDMP [L8D],2.71
24,YVHHQALGDVKNIAHQNKFGEDMP [L8G],2.09

row,Variant,protein stability index
1,YVHHQALYDVKNIAHQNKFGEDMP [L8Y],2.32
2,YVHHQALRDVKNIAHQNKFGEDMP [L8R],2.06
3,YVHHQALHDVKNIAHQNKFGEDMP [L8H],2.72
4,YVHHQALCDVKNIAHQNKFGEDMP [L8C],2.43
5,YVHHQALTDVKNIAHQNKFGEDMP [L8T],2.44
6,YVHHQALIDVKNIAHQNKFGEDMP [L8I],1.65
7,YVHHQALQDVKNIAHQNKFGEDMP [L8Q],2.4
8,YVHHQALFDVKNIAHQNKFGEDMP [L8F],3.34
9,YVHHQALSDVKNIAHQNKFGEDMP [L8S],2.39
10,YVHHQALADVKNIAHQNKFGEDMP [L8A],1.93
11,YVHHQALMDVKNIAHQNKFGEDMP [L8M],1.95
12,YVHHQALPDVKNIAHQNKFGEDMP [L8P],2
13,YVHHQALEDVKNIAHQNKFGEDMP [L8E],2.87
14,YVHHQALKDVKNIAHQNKFGEDMP [L8K],2.31
15,YVHHQAHLDVKNIAHQNKFGEDMP [L7H],2.25
16,YVHHQAVLDVKNIAHQNKFGEDMP [L7V],2.21
17,YVHHQAILDVKNIAHQNKFGEDMP [L7I],1.83
18,YVHHQAGLDVKNIAHQNKFGEDMP [L7G],2.33
19,YVHHQAFLDVKNIAHQNKFGEDMP [L7F],2.39
20,YVHHQADLDVKNIAHQNKFGEDMP [L7D],2.61
21,YVHHQANLDVKNIAHQNKFGEDMP [L7N],2.4
22,YVHHQASLDVKNIAHQNKFGEDMP [L7S],2.31
23,YVHHQAYLDVKNIAHQNKFGEDMP [L7Y],2.53
24,YVHHQARLDVKNIAHQNKFGEDMP [L7R],1.8

row,Variant,protein stability index
1,YVHHQAMLDVKNIAHQNKFGEDMP [L7M],2.32
2,YVHHQAWLDVKNIAHQNKFGEDMP [L7W],2.77
3,YVHHQACLDVKNIAHQNKFGEDMP [L7C],1.97
4,YVHHQAALDVKNIAHQNKFGEDMP [L7A],1.89
5,YVHHQAKLDVKNIAHQNKFGEDMP [L7K],1.9
6,YVHHQAPLDVKNIAHQNKFGEDMP [L7P],2.73
7,YVHHQATLDVKNIAHQNKFGEDMP [L7T],2.18
8,YVHHQAELDVKNIAHQNKFGEDMP [L7E],2.88
9,YVHHQAQLDVKNIAHQNKFGEDMP [L7Q],2.14
10,YVHMQALLDVKNIAHQNKFGEDMP [H4M],1.83
11,YVHFQALLDVKNIAHQNKFGEDMP [H4F],2.98
12,YVHYQALLDVKNIAHQNKFGEDMP [H4Y],1.78
13,YVHNQALLDVKNIAHQNKFGEDMP [H4N],1.65
14,YVHDQALLDVKNIAHQNKFGEDMP [H4D],2.64
15,YVHPQALLDVKNIAHQNKFGEDMP [H4P],3.02
16,YVHLQALLDVKNIAHQNKFGEDMP [H4L],2.2
17,YVHGQALLDVKNIAHQNKFGEDMP [H4G],1.99
18,YVHQQALLDVKNIAHQNKFGEDMP [H4Q],2.61
19,YVHRQALLDVKNIAHQNKFGEDMP [H4R],1.74
20,YVHCQALLDVKNIAHQNKFGEDMP [H4C],1.7
21,YVHEQALLDVKNIAHQNKFGEDMP [H4E],2.82
22,YVHSQALLDVKNIAHQNKFGEDMP [H4S],1.64
23,YVHIQALLDVKNIAHQNKFGEDMP [H4I],1.97
24,YVHKQALLDVKNIAHQNKFGEDMP [H4K],1.78

row,Variant,protein stability index
1,YVHTQALLDVKNIAHQNKFGEDMP [H4T],1.47
2,YVHWQALLDVKNIAHQNKFGEDMP [H4W],3.43
3,YVHVQALLDVKNIAHQNKFGEDMP [H4V],1.95
4,YVHHQALLDVGNIAHQNKFGEDMP [K11G],1.95
5,YVHHQALLDVQNIAHQNKFGEDMP [K11Q],1.4
6,YVHHQALLDVENIAHQNKFGEDMP [K11E],2.24
7,YVHHQALLDVCNIAHQNKFGEDMP [K11C],1.54
8,YVHHQALLDVANIAHQNKFGEDMP [K11A],1.81
9,YVHHQALLDVRNIAHQNKFGEDMP [K11R],2.08
10,YVHHQALLDVHNIAHQNKFGEDMP [K11H],2.21
11,YVHHQALLDVFNIAHQNKFGEDMP [K11F],2.13
12,YVHHQALLDVMNIAHQNKFGEDMP [K11M],1.72
13,YVHHQALLDVINIAHQNKFGEDMP [K11I],2.09
14,YVHHQALLDVLNIAHQNKFGEDMP [K11L],1.27
15,YVHHQALLDVDNIAHQNKFGEDMP [K11D],2.18
16,YVHHQALLDVNNIAHQNKFGEDMP [K11N],1.98
17,YVHHQALLDVPNIAHQNKFGEDMP [K11P],1.92
18,WVHHQALLDVKNIAHQNKFGEDMP [Y1W],2.98
19,VVHHQALLDVKNIAHQNKFGEDMP [Y1V],3.14
20,SVHHQALLDVKNIAHQNKFGEDMP [Y1S],4.29
21,RVHHQALLDVKNIAHQNKFGEDMP [Y1R],3.59
22,TVHHQALLDVKNIAHQNKFGEDMP [Y1T],3.75
